Measured values reported in patent publication US8299028B2, “Chimeric peptide antagonist for GPCR135 or GPCR142” (Janssen Pharmaceutica NV, priority 2007, dated 2012).
pEC50: −log10 of the molar value.

Key:
human GPCR135 [1] = target: T1, human GPCR135 (Homo sapiens, UniProt Q9NSD7); test: Radioligand binding assay, 125I-R3/I5 tracer, COS-7 cells expressing GPCR135; design: expressed in transfected cells; host or cells: COS-7
T1 sequence (Q9NSD7 1-469): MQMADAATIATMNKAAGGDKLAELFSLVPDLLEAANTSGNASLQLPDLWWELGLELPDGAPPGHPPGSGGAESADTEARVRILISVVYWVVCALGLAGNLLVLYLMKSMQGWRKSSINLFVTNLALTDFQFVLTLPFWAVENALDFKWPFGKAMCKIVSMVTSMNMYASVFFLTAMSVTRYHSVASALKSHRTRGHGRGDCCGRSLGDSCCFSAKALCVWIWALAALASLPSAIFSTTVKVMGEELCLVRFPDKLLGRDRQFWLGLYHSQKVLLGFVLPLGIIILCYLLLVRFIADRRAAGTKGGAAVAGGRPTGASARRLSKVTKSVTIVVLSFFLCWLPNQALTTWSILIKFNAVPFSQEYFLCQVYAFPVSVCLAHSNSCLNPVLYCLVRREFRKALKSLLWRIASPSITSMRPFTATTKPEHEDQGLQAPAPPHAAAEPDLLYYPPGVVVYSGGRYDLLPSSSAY
Description: COS-7 cells in 24-well tissue culture plates transiently expressing GPCR135, GPCR142 or LGR7 were used in radioligand binding assays as described by Liu et al., 2005a, J. Biol. Chem., 280:292-300. ^125I-Relaxin-3/INSL5 (^125I-R3/I5), a radiolabeled chimeric peptide with the human relaxin-3 B-chain and the human INSL5 A-chain (Liu et al., 2005b), was used at a final concentration of 50 pM as the tracer to characterize the binding properties of all truncated relaxin-3 peptides for GPCR135 and GPCR142. ^125I-relaxin-2 (PerkinElmer Biosciences, Boston) was used at a final concentration of 50 pM to characterize the binding properties of the truncated peptides for the relaxin receptor (LGR7). The results were analyzed by GraphPad Prism 4.0 software (Graphpad, San Diego). The IC50 values, which are the ligand concentrations that inhibited 50% of the maximum specific binding, were then calculated.

human GPCR135 [2] = target: T1, human GPCR135; test: Agonist assay, inhibition of forskolin-induced β-gal expression in SK-N-MC/CRE-β-gal cells; assay type: cell-based; design: expressed in transfected cells; conditions: human GPCR135 agonist response, mean ± SEM; NA = no agonist activity observed
Experimental: FIG. 1 provides a characterization of mutant relaxin-3 peptides as ligands for human GPCR135, GPCR142, and LGR7. The truncated peptides were tested for their GPCR135 and GPCR142 agonist activity using SK-N-MC/CRE-β-gal cells expressing either human GPCR135 (A) or GPCR142 (B). Agonists for GPCR135 or GPCR142 inhibit forskolin induced β-galactosidase (β-gal) expression. The LGR7 agonist activity of the truncated peptides was tested using SK-N-MC/CRE-β-gal cells expressing Gαs-linked human LGR7 (C). Human relaxin-3 was used as positive control in both cases. β-gal expression was measured by colorimetric assay using CPRG as the substrate and reading the absorbance at 570 nm.
All peptides were tested for their GPCR135, GPCR142, and LGR7 agonist activities in SK-N-MC/CRE cells expressing the relevant receptors as described by Liu et al., 2005b. […] An increase in cAMP concentration in these cells is associated with increased β-gal expression, which can be measured using Chlorophenol Red-β-D-Galactopyranoside (CRGP) as a substrate and reading the optical absorbance at 570 nm. […] The results were analyzed using GraphPad Prism 4.0 software. […] The agonism and antagonism of peptides for rat LGR7 was assayed using a cAMP luminescence assay. […] The cAMP in the cells was measured with a cAMP detection kit (DiscoveRx HitHunter, Cat. #90-0041) according to the manufacturer's protocol. […]

Question: What does the source list for “R3(BΔ23-27)R: Relaxin-3 mutant: B-chain SEQ ID NO:15 (Gly23-Trp27 deleted plus C-terminal Arg), relaxin-3 A-chain SEQ ID NO:13”?
Answer: affinity of human GPCR135 (human GPCR135 [1]): high affinities; pEC50 (human GPCR135 [2]): < 6.00
